Results published in patent US10919943B2, “Mutant proteins enabling agrochemical control of plant gene expression” (The Regents of the University of California, priority 2016, dated 2021).
Changes are numbered by the printed parent chain. Numbers in names are those of the source.

T1: PYR1 (Arabidopsis thaliana, UniProt O49686)
T1 construct: expressed in transfected cells; host or cells: S. cerevisiae strain Y190
T1 sequence (O49686 1-191): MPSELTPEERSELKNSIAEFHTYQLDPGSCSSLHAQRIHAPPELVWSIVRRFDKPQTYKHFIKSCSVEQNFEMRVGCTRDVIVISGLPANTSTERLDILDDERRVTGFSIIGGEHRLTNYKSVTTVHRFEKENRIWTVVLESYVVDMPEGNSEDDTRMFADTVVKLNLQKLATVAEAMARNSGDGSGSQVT

B1: G246A: HAB1 mutant (protein, UniProt Q9CAJ0 23-511, looked up, variant G246A)
Protein phosphatase 2C 16: SPVEITQLKNVTDAADLLSDSENQSFCNGGTECTMEDVSELEEVGEQDLLKTLSDTRSGSSNVFDEDDVLSVVEDNSAVISEGLLVVDAGSELSLSNTAMEIDNGRVLATAIIVGESSIEQVPTAEVLIAGVNQDTNTSEVVIRLPDENSNHLVKGRSVYELDCIPLWGTVSIQGNRSEMEDAFAVSPHFLKLPIKMLMGDHEGMSPSLTHLTGHFFGVYDGHAGHKVADYCRDRLHFALAEEIERIKDELCKRNTGEGRQVQWDKVFTSCFLTVDGEIEGKIGRAVVGSSDKVLEAVASETVGSTAVVALVCSSHIVVSNCGDSRAVLFRGKEAMPLSVDHKPDREDEYARIENAGGKVIQWQGARVFGVLAMSRSIGDRYLKPYVIPEPEVTFMPRSREDECLILASDGLWDVMNNQEVCEIARRRILMWHKKNGAPPLAERGKGIDPACQAAADYLSMLALQKGSKDNISIIVIDLKAQRKFKTRT
B2: G246M: HAB1 mutant (protein, UniProt Q9CAJ0 23-511, looked up, variant G246M)
Protein phosphatase 2C 16: B1 Protein phosphatase 2C 16 with A224M
B3: G247P: HAB1 mutant (protein, UniProt Q9CAJ0 23-511, looked up, variant G247P)
Protein phosphatase 2C 16: B1 Protein phosphatase 2C 16 with A224G, G225P
B4: G246H: HAB1 mutant (protein, UniProt Q9CAJ0 23-511, looked up, variant G246H)
Protein phosphatase 2C 16: B1 Protein phosphatase 2C 16 with A224H
B5: G247E: HAB1 mutant (protein, UniProt Q9CAJ0 23-511, looked up, variant G247E)
Protein phosphatase 2C 16: B1 Protein phosphatase 2C 16 with A224G, G225E
B6: G246S: HAB1 mutant (protein, UniProt Q9CAJ0 23-511, looked up, variant G246S)
Protein phosphatase 2C 16: B1 Protein phosphatase 2C 16 with A224S
B7: G246R: HAB1 mutant (protein, UniProt Q9CAJ0 23-511, looked up, variant G246R)
Protein phosphatase 2C 16: B1 Protein phosphatase 2C 16 with A224R
B8: G246W: HAB1 mutant (protein, UniProt Q9CAJ0 23-511, looked up, variant G246W)
Protein phosphatase 2C 16: B1 Protein phosphatase 2C 16 with A224W
B9: G247R: HAB1 mutant (protein, UniProt Q9CAJ0 23-511, looked up, variant G247R)
Protein phosphatase 2C 16: B1 Protein phosphatase 2C 16 with A224G, G225R
B10: G247F: HAB1 mutant (protein, UniProt Q9CAJ0 23-511, looked up, variant G247F)
Protein phosphatase 2C 16: B1 Protein phosphatase 2C 16 with A224G, G225F
B11: G247I: HAB1 mutant (protein, UniProt Q9CAJ0 23-511, looked up, variant G247I)
Protein phosphatase 2C 16: B1 Protein phosphatase 2C 16 with A224G, G225I
B12: G246E: HAB1 mutant (protein, UniProt Q9CAJ0 23-511, looked up, variant G246E)
Protein phosphatase 2C 16: B1 Protein phosphatase 2C 16 with A224E
B13: G247Q: HAB1 mutant (protein, UniProt Q9CAJ0 23-511, looked up, variant G247Q)
Protein phosphatase 2C 16: B1 Protein phosphatase 2C 16 with A224G, G225Q
B14: G247Y: HAB1 mutant (protein, UniProt Q9CAJ0 23-511, looked up, variant G247Y)
Protein phosphatase 2C 16: B1 Protein phosphatase 2C 16 with A224G, G225Y
B15: G246C: HAB1 mutant (protein, UniProt Q9CAJ0 23-511, looked up, variant G246C)
Protein phosphatase 2C 16: B1 Protein phosphatase 2C 16 with A224C
B16: G247T: HAB1 mutant (protein, UniProt Q9CAJ0 23-511, looked up, variant G247T)
Protein phosphatase 2C 16: B1 Protein phosphatase 2C 16 with A224G, G225T
B17: G247A: HAB1 mutant (protein, UniProt Q9CAJ0 23-511, looked up, variant G247A)
Protein phosphatase 2C 16: B1 Protein phosphatase 2C 16 with A224G, G225A
B18: G247V: HAB1 mutant (protein, UniProt Q9CAJ0 23-511, looked up, variant G247V)
Protein phosphatase 2C 16: B1 Protein phosphatase 2C 16 with A224G, G225V
B19: G246P: HAB1 mutant (protein, UniProt Q9CAJ0 23-511, looked up, variant G246P)
Protein phosphatase 2C 16: B1 Protein phosphatase 2C 16 with A224P
B20: G246T: HAB1 mutant (protein, UniProt Q9CAJ0 23-511, looked up, variant G246T)
Protein phosphatase 2C 16: B1 Protein phosphatase 2C 16 with A224T
B21: G246Q: HAB1 mutant (protein, UniProt Q9CAJ0 23-511, looked up, variant G246Q)
Protein phosphatase 2C 16: B1 Protein phosphatase 2C 16 with A224Q
B22: G246V: HAB1 mutant (protein, UniProt Q9CAJ0 23-511, looked up, variant G246V)
Protein phosphatase 2C 16: B1 Protein phosphatase 2C 16 with A224V
B23: G246L: HAB1 mutant (protein, UniProt Q9CAJ0 23-511, looked up, variant G246L)
Protein phosphatase 2C 16: B1 Protein phosphatase 2C 16 with A224L
B24: G246D: HAB1 mutant (protein, UniProt Q9CAJ0 23-511, looked up, variant G246D)
Protein phosphatase 2C 16: B1 Protein phosphatase 2C 16 with A224D
B25: G246K: HAB1 mutant (protein, UniProt Q9CAJ0 23-511, looked up, variant G246K)
Protein phosphatase 2C 16: B1 Protein phosphatase 2C 16 with A224K
B26: G246F: HAB1 mutant (protein, UniProt Q9CAJ0 23-511, looked up, variant G246F)
Protein phosphatase 2C 16: B1 Protein phosphatase 2C 16 with A224F
B27: G247W: HAB1 mutant (protein, UniProt Q9CAJ0 23-511, looked up, variant G247W)
Protein phosphatase 2C 16: B1 Protein phosphatase 2C 16 with A224G, G225W
B28: G247M: HAB1 mutant (protein, UniProt Q9CAJ0 23-511, looked up, variant G247M)
Protein phosphatase 2C 16: B1 Protein phosphatase 2C 16 with A224G, G225M
B29: G246I: HAB1 mutant (protein, UniProt Q9CAJ0 23-511, looked up, variant G246I)
Protein phosphatase 2C 16: B1 Protein phosphatase 2C 16 with A224I
B30: G246Y: HAB1 mutant (protein, UniProt Q9CAJ0 23-511, looked up, variant G246Y)
Protein phosphatase 2C 16: B1 Protein phosphatase 2C 16 with A224Y
B31: G247K: HAB1 mutant (protein, UniProt Q9CAJ0 23-511, looked up, variant G247K)
Protein phosphatase 2C 16: B1 Protein phosphatase 2C 16 with A224G, G225K
B32: G246N: HAB1 mutant (protein, UniProt Q9CAJ0 23-511, looked up, variant G246N)
Protein phosphatase 2C 16: B1 Protein phosphatase 2C 16 with A224N

biological target: T1, PYR1; experiment: Yeast two hybrid of pACT-HAB1 site saturation mutants with pBD-PYR1 on 10 μM ABA, β-galactosidase staining; format: cell-based; parameters: key: x: Mutations in HAB1 that disrupt HAB1 interaction with PYR1; details: S. cerevisiae Y190, 10 μM ABA; dead = lack of detectable staining in comparison to wild type control
Procedure, shortened: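 Read-out is β-galactosidase staining of chloroform-lysed Y190 colonies grown 2 days at 30 °C on SD (-Leu,-Trp) plus 10 μM ABA. Each pACT-HAB1 single-substitution mutant (N-terminally truncated by three residues) was paired with pBD-PYR1; absence of detectable staining relative to wild type scored as dead.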

| Mutations in HAB1 that disrupt HAB1 interaction with PYR1 | Molecule |
| --- | --- |
| x | B1 |
| x | B2 |
| x | B3 |
| x | B4 |
| x | B5 |
| x | B6 |
| x | B7 |
| x | B8 |
| x | B9 |
| x | B10 |
| x | B11 |
| x | B12 |
| x | B13 |
| x | B14 |
| x | B15 |
| x | B16 |

| Mutations in HAB1 that disrupt HAB1 interaction with PYR1 | Molecule |
| --- | --- |
| x | B17 |
| x | B18 |
| x | B19 |
| x | B20 |
| x | B21 |
| x | B22 |
| x | B23 |
| x | B24 |
| x | B25 |
| x | B26 |
| x | B27 |
| x | B28 |
| x | B29 |
| x | B30 |
| x | B31 |
| x | B32 |
